Columns and labels:
[1] = molecular target: T1, recombinant human CD3 epsilon/delta heterodimer (human, UniProt P07766 23-126; P04234 22-105); assay: BLI (Octet), mAb 5 ug/mL on FAB2G sensor, hCD3 E/D 200-50 nM
T1 construct: Recombinant heterodimer used as analyte in Octet; also called hCD3 E/D; human CD3E/D
Description: (§1) Samples were evaluated by flow cytometry analysis against Jurkat and human Pan-T cells (FIG. 1B) as well as by Octet against recombinant human CD3 proteins to evaluate apparent affinities and binding off-rates (Table 6, infra).

[2] = molecular target: T2, recombinant human CD3 epsilon/gamma heterodimer (human, UniProt P07766 23-126; P09693 23-116); assay: BLI (Octet), mAb 5 ug/mL on FAB2G sensor, hCD3 E/G 200-50 nM;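 also: antibodies purified from hybridoma supernatants, measured by Octet binding to recombinant human CD3 protein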
T2 construct: Recombinant heterodimer used as analyte in Octet; also called hCD3 E/G
T2 sequence (P07766 23-126, chain 1 of 2): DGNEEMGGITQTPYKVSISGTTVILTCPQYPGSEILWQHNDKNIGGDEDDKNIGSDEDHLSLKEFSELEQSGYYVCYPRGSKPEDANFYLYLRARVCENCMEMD
T2 sequence (P09693 23-116, chain 2 of 2): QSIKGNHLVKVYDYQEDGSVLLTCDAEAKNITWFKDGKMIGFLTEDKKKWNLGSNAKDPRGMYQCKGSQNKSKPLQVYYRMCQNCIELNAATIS
Description: as §1

T1 sequence (P07766 23-126, stated change not applied, chain 1 of 2): as the sequence (P07766 23-126, chain 1 of 2) above
T1 sequence (P04234 22-105, stated change not applied, chain 2 of 2): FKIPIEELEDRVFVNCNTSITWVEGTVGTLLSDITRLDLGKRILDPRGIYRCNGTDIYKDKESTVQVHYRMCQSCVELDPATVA

B1: ABL-CD3-65 (antibody, V domains shown)
VH: QVQLQQWGAGLLKPSETLSLTCAVYGGSFSGYYWSWIRQPPGKGLEWIGEINHSGSTNYNPSLKSRVTISVDTSKNQFSLKLSSVTAADTAVYYCAREYYYYGMDVWGQGTTVTVSS
VL: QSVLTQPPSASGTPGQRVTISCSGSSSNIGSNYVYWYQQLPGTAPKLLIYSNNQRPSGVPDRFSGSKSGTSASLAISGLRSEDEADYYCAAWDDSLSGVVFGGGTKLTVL
notes: mAb purified from hybridoma; chimeric AlivaMab IgG (human VH, CH1 and upper hinge; mouse middle hinge, CH2, CH3; human light chain)
- Kd [1]: 22.7 nM
- Response [1]: 0.01
- koff [1]: 0.00643 s⁻¹
- kon [1]: 283000 M⁻¹ s⁻¹
- Kd [2]: 18.7 nM
- Response [2]: 0.01
- koff [2]: 0.00174 s⁻¹
- kon [2]: 93200 M⁻¹ s⁻¹

B2: ABL-CD3-87 (antibody, V domains shown)
VH: EVQLVESGGGLVKFGGSLRLSCAASGFTFSRYSMNWVRQAPGKGLEWVSSISSSSSYKYYADSVKGRFTISRDNAKNSLYLQMNSLRAEDTAVYYCAREGGNSHGMDVWGQGTTVTVSS
VL: NFMLTQPHSVSESPGKTVTISCTRSSGSIASNYVQWYQQRPGSSPTTVIYEDNQRPSGVPDRFSGSIDSSSNSASLTISGLKTEDEADYYCQSYDSSNRVFGGGTKLTVL
notes: as for B1
- Kd [1]: 69 nM
- Response [1]: 0.0358
- koff [1]: 0.0166 s⁻¹
- kon [1]: 240000 M⁻¹ s⁻¹
- Kd [2]: 131 nM
- Response [2]: 0.36
- koff [2]: 0.0279 s⁻¹
- kon [2]: 214000 M⁻¹ s⁻¹

B3: ABL-CD3-70 (antibody, V domains shown)
VH: EVQLVESGGGLVKPGGSLRLSCAASGFTFSTYIMNWVRQAPGKGLEWVSSITSSSSYIYYADSVKGRFTISRDNAKNSLYLQMNSLRAEDTAVYYCAREKWELLFFDYWGQGTLVTVSS
VL: NFMLTQPHSVSESPGKTVTISCTRSSGSIASNYVQWYQQRPGSSPTTVIYEDNQRPSGVPDRFSGSIDSSSNSASLTISGLKTEDEADYYCQSYDSSNRVFGGGTKLTVL
notes: as for B1
- Kd [1]: 47.1 nM
- Response [1]: 0.26
- koff [1]: 0.0101 s⁻¹
- kon [1]: 214000 M⁻¹ s⁻¹
- Kd [2]: 4.87 nM
- Response [2]: 0.11
- koff [2]: 0.00339 s⁻¹
- kon [2]: 697000 M⁻¹ s⁻¹

B4: ABL-CD3-66 (antibody, V domains shown)
VH: QVQLQESGPGLVKPSETLSLTCTVSGGSISSYYWSWIRQPAGKGLEWIGRIYASGSTYYNPSLKSRVTMSVDTSKNQFSLKLSSVTAADTAVYYCAREKRSRLYFDYWGQGTLVTVSS
VL: NFMLTQPHSVSESPGKTVTISCTRSSGSIASNYVQWYQQRPGSSPTTVIYEDNQRPSGVPDRFSGSIDSSSNSASLTISGLKTEDEGDYYCQSYDRSNRVFGGGTKLTVL
notes: as for B1
- Kd [1]: 78.2 nM
- Response [1]: 0.41
- koff [1]: 0.0266 s⁻¹
- kon [1]: 341000 M⁻¹ s⁻¹
- Kd [2]: 92.8 nM
- Response [2]: 0.09
- koff [2]: 0.0856 s⁻¹
- kon [2]: 923000 M⁻¹ s⁻¹

B5: ABL-CD3-67 (antibody, V domains shown)
VH: EVQLVESGGGLVKPGGSLRLSCAASGFTVSSYSMNWVRQAPGKGLEWVSSISRSSSYIYYADSVKGRFTISRDNAKNSLFLQMNSLRAEDTAVYYCARERWELLYFDYWGQGTLVTVSS
VL: NFMLTQPHSVSESPGKTVTISCTRSSGSIASNYVQWYRQRPGSSPTTVIYEDNQRPSGVPDRFSGAIDSSSTSASLTISGLKTEDEADYYCQSYDSSNRVFGGGTKLTVL
notes: as for B1
- Kd [1]: 53.3 nM
- Response [1]: 0.58
- koff [1]: 0.00485 s⁻¹
- kon [1]: 90800 M⁻¹ s⁻¹
- Kd [2]: 109 nM
- Response [2]: 0.26
- koff [2]: 0.0178 s⁻¹
- kon [2]: 163000 M⁻¹ s⁻¹

B6: ABL-CD3-71 (antibody, V domains shown)
VH: QVQLQESGPGLVKPSETLSLTCTVSGGSINSYYWSWIRQPAGKGLEWIGRIYTSGSTNYNPSLKSRVTMSVDTSKKQFSLKLSSVTAADTAVYYCARERISRLYFDYWGQGILVTVSS
VL: NFMLTQPHSVSESPGKTVTISCTRSSGSIASNYVQWYQQRPGSSPTTVIYEDNQRPSGVPDRFSGSIDSSSNSASLTISGLKTEDEADYYCQSYDRSNRVFGGGTKLTVL
notes: as for B1
- Kd [1]: 58.8 nM
- Response [1]: 0.48
- koff [1]: 0.0102 s⁻¹
- kon [1]: 173000 M⁻¹ s⁻¹
- Kd [2]: 55 nM
- Response [2]: 0.11
- koff [2]: 0.0329 s⁻¹
- kon [2]: 598000 M⁻¹ s⁻¹

Reference: patent US20260167721A1 (ABLEXIS, published 2026)
